From patent US20220047684A1, “ENZYMES AND METHODS FOR PREVENTING AND TREATING […] IN ANIMALS” (Ecto Development Corporation, priority 2020, published 2022)

B1: E5: esterase EstP from Klebsiella sp., amino acid SEQ. ID No. 5 (protein)
chain: MEICTKGSRKHLTSRASEPSYNVPENQYVLYVVSSTLSIVICQLVKVAESKKSRFSGAIEKLNERLDSLKDYRIINRDLVVKDLERLKKRFDTEVINAELSEQLAKINVNLSRSYSEKGYLRLEKATGSENEWWAKKPSQNDDWQQFEPDGYTIFSSRDHYASLEKSYSDYEIEAKIPLPLRRGICAVVLYPEYISRICVLPESRSIQREQENFTKLRDKGIALSKKDWQAKLTIDELAEQEKERATINKRLGYFATEHEKVGIVHKALEPKLICPFQQIEKEWRQCKVKSKSTFPNSMTFVQNPAYQAVHSGFKKLKEQIGLADEDILLSLEKIEAIGLVNMPLLYERWCLLQIIKVLTQAFRYQPEDNWKRKLIANIQGNEEQISIQFFNPSVSRAITLQYEPFLANGKRPDFVLDVEAITKSGNQISKRLVVDAKYYSAAYLKQRGGIGGVIHELYNGKDYSECQENSVFVLHPVLDAVEKVVSPQEWAKDSYLGELSMFDWEPAHHQRQATNYGAVCANPMKSQRYLDEIQRMLGMFLQYGIEDNTSFRGASDDTHAVNFCVSCGSEKVVDVTKSMSSNNQKRWYRCNECTHFTVYTHCGTCNTRLIKNGEYWTYLSLMPMSSINIKCPNCESPV
modifications: Klebsiella
B2: E2: pyrethroid-hydrolyzing carboxylesterase pnbA from B. subtilis, amino acid SEQ. ID No. 2 (protein, listed as Bacillus subtilis)
chain: MTHQIVTTQYGKVKGTTENGVHKWKGIPYAKPPVGQWRFKAPEPPEVWEDVLDATAYGSICPQPSDLLSLSYTELPRQSEDCLYVNVFAPDTPSKNLPVMVWIHGGAFYLGAGSEPLYDGSKLAAQGEVIVVTLNYRLGPFGFLHLSSFNEAYSDNLGLLDQAAALKWVRENISAFGGDPDNVTVFGESAGGMSIAALLAMPAAKGLFQICAIMESGASRTMTICEQAASTSAAFLQVLGINEGQLDKLHTVSAEDLLKAADQLRIAEKENFQLFFQPALDPKTLPEEPEKAIAEGAASGIPLLIGTTRDEGYLFFTPDSDVHSQETLDAALEYLLGKPLAEKVADLYPRSLESQIHMMTDLLEWRPAVAYASAQSHYAPVWMYREDWHPKKPPYNKAFHALELPFVFGNLDGLERMAKAEITDEVKQLSHTIQSAWITFAKTGNPSTEAVNWPAYHEETRETLILDSEITIENDPESEICRQKLEPSKGE
B3: E4: pyrethroid-hydrolyzing carboxylesterase MsE1 from Methylobacterium sp., amino acid SEQ. ID No. 4 (protein)
chain: MTQDTTGFIFIREEPGPDTTRPLMLLHGTGGDENDLLPLGRMVAPEAALLAPRGGVSENGMPRFFRRLAEGVFDEADLRRRTGDLAAFVAASRARYGLGAPLALGFSNGANIAASLLMLRPETLTGAVLIRPMVPFAEPPAADLAGRPVLILSGAMDPIVPVENARRLAQQLSASGARVEHRILPAGHGLSQADVSQALAWLRSLPGPEAA
modifications: Methylobacterium
B4: E1: pyrethroid-hydrolyzing carboxylesterase pytZ from Ochrobactrum sp., amino acid SEQ. ID No. 1 (protein)
chain: MTTQTYEHRLKAGAKGAPLFIVFHGTGGDENQFFGLAEQLLPDATIMSPRGDVSEYGAARFFRRTGEGVYDMEDLARATDKMAGFIAALAAEYKTSEVIGLGYSNGANIMANLLIEKGRVEDKAALLHPLVPFRPKDNPALEGAKILMTAGRMDPICPPDLTEALAQYFERQKADVELVWHPGGHELRQTELAAVQSLLAY
modifications: Ochrobactrum sp

Columns and labels:
[1] = pNPA method esterase (carboxylesterase) activity assay of spore productions; format: biochemical; conditions: 30° C. for 30 minutes, absorbance at 400
Description: Each of the identified enzymes were evaluated for esterase activity assay using pNBA method described below. Determination of carboxylesterase activity of cargo enzyme in Bacillus thuringiensis spore productions or of free enzyme productions. Three active carboxylesterases cloned into pBCm (Bt EO) and pET28a (E. coli BL21) systems: pnbA (B. subtilis), PytH2 (Sphingobium wenxiniae strain), and MsE1 (Methylobacterium sp). p-Nitrophenyl acetate was the substrate in assays for esterase activity. The hydrolysis of p-nitrophenyl acetate releases p-nitrophenol and acetate, and while p-nitrophenyl acetate is colorless, p-nitrophenol is yellow.
6 mg p-Nitrophenyl acetate (pNPA, CAS #830-03-5, MW: 181.1 g/mol) was weighed and dissolved in 1 mL methanol (CAS #67-56-1, MW: 32.04 g/mol). Stored at −20° C. and kept on ice when preparing reactions.
8.0 g sodium chloride (NaCl, CAS #7647-14-5, MW: 58.44 g/mol), 1.44 g sodium phosphate dibasic was dissolved (Na2HPO4, CAS #7558-79-4, MW: 141.96 g/mol), and 0.24 g potassium phosphate monobasic (KH2PO4, CAS #7778-77-0, 136.09 g/mol) in 800 mL DI H20, then adjust pH to 7.4 using hydrochloric acid (HCl, CAS #7647-01-0, MW: 36.46 g/mol). Make 100 mL aliquots and autoclave.
Esterase from rabbit liver (CAS #9016-18-6, Sigma E0887-powder). Store at −20° C. To prepare a stock dissolve 1 mg in 1 mL PBS, kept on ice when using.
Up to 1 mL spore production was pelleted up for 5 min at max speed. Supernatant was discarded without disturbing spore pellet and suspend pellet in ice-cold PBS. Spores kept suspended on ice until use.
The assay was run at 30° C. for 30 minutes. The assay was shaken continuously. Activity was read on (A) 400 BioTek Synergy/HTX microplate reader was used. The results of pNPA hydrolysis are shown in Table 3 depicting carboxylesterase enzyme activity for each of the five strains using pNPA hydrolysis.

[2] = Biological permethrin assay for esterase activity (activity units of esterases); format: biochemical; conditions: esterases used in reaction mix for scud assay
Description: A biological permethrin assay was performed for control, and three esterases pnbA, pytH2 and MsE1. The sensitivity of scuds (Hyalella Azteca) to permethrin was tested with three esterases pnbA, pytH2 and MsE1.
For control and each of the three esterases pnbA, pytH2 and MsE1, ten scuds were exposed to permethrin and one of pnbA, pytH2 or MsE1.
• 100 μL 50% MeOH in PBS • 0.2 μg/μL
• 37 degree C. • 18 hr • Shanking 1000 rpm Transferred 20 μL rxn mix [4 μg] to 100 mL [containing 10 scuds] At time, 24 h and 48 h the ten scuds were scored: A=Alive and Moving actively BA=Barely Alive—Difficulty swimming away; only legs are moving D=Dead—Not moving at all The results of which are shown in FIGS. 8 and 9.

Molecule	pNPA hydrolysis [1]	Activity units [2]
B1	BDL	
B2	19.7 ± 1.4 nmol pNPA/min/1E+8 spores	31.4
B3	30.6 ± 0.0 nmol pNPA/min/1E+8 spores	39.5
B4	BDL	
